Assay results as given in the supplement of paper PMC10567573.

B1: WDFY1 (parent)
chain: FWNIKQMWDTKTLGLRQHHCRKCG

Variants of: B1
Assay: protein stability index of a GFP-peptide fusion (GPS, HEK-293T) (PSI 1-6); higher = more stable
Conditions: c terminus: a fixed tail appended
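Also: lentivirally expressed fusions sorted by FACS into six bins by GFP to DsRed ratio, PSI derived from sequencing read proportions per bin multiplied by bin number.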

Protein stability index, by site and new letter:
H18: M 2.27, L 2.31, D 2.92, G 2.39, N 2.35, W 2.06, E 2.21, C 3, A 1.84, Y 2.08, T 3.16, V 2.02, K 1.89, S 2.58, P 2.63, F 1.64, Q 1.82, I 2.01, R 2.21
H19: F 1.64, I 2, P 2.66, A 2.14, E 2.09, L 2.23, K 2.33, N 2.23, D 2.21, Q 2.4, C 2.14, M 1.92, G 1.63
N3: M 2.23, I 1.5, S 1.61, F 1.96, Q 1.96, A 1.56, Y 2.37, K 1.41, T 1.23, V 1.27, W 2.85, H 1.85, R 2.13, D 2.02, P 2.57, G 2.17, C 2.56, L 1.54, E 2.05
W8: V 2.15, E 2.44, G 2.81, S 3.12, R 1.42, I 1.75, K 2.18, F 1.67, M 2.78, Y 2.6, T 2.52, H 2.24, L 1.76, A 2.57, Q 2.59, N 2.25, P 2.73, D 3.27, C 2.54
T12: P 1.98, W 1.79, E 1.72, V 2.33, L 1.36, Q 2.39, H 1.86, R 2.73, S 2.14, D 1.91, M 2.6, A 2.29, G 1.77, C 3.57, K 2, I 1.63, N 1.84, Y 2.72, F 2.11
T10: H 2.13, I 2.31, N 2.04, G 1.89, L 2.23, E 2.39, W 2.48, R 2.06, F 2.52, D 2.56, K 3.11, A 1.48, Q 1.91, P 2.28, Y 1.41, M 2.16, C 2.11, V 2.04, S 2.18
W2: E 2.53, F 2.55, S 1.62, D 2.19, N 2.46, L 2.47, V 2.71, A 2.24, P 2.32, G 1.47, Q 1.75, T 1.67, R 2.82, C 1.14, M 2.32, H 1.43, I 2.41, Y 2.74, K 2.29
Q17: S 2.05, V 1.68, A 1.6, I 1.81, M 1.7, C 2.13, R 2.75, K 1.99, G 2.98, E 2.56, T 2.12, Y 1.98, W 2.02, F 1.88, H 1.83, D 1.63, P 2.13, N 2.14, L 2.53
L15: F 1.91, E 3.35, I 1.75, Y 1.98, S 2.95, P 1.55, R 1.93, V 2.35, C 1.75, A 2.27, T 2.43, H 2.43, K 2.14, G 1.78, M 1.79, Q 2.29, D 1.56, N 2.07
K11: N 2.27, D 2.37, L 1.54, T 2.21, C 1.87, W 2.44, H 1.8, Y 1.77, E 3.03, G 2.08, A 2.14, V 1.97, M 1.94, I 1.42, F 1.92, S 2.57, P 2.2, R 1.27, Q 1.77
L13: I 2.26, R 2.29, D 1.7, W 2.01, V 2.15, N 1.96, M 2, Y 2.67, P 2.22, G 2.01, H 2.22, C 2.57, S 2.37, A 2.01, F 2.2, E 2.56, Q 2.02, K 2.08, T 1.95
F1: Y 2.02
K5: A 1.97, W 2.11, Y 1.36, F 2.33, M 1.87, R 1.82, Q 2.03, L 1.07, D 2.27, T 1.97, S 1.72, C 1.79, V 1.69, N 2.28, H 2.03, I 2.15, E 2.43, G 1.96, P 2.17
I4: H 2.56, T 2.14, S 1.95, K 2, R 1.45, V 2.52, Q 3.12, L 1.74, A 1.89, D 2.56, P 2.55, E 3.05, M 2.35, C 2.67, N 2.13, W 3.44, F 1.54, Y 1.9, G 2.19
D9: W 1.75, L 1.6, V 3.82, F 1.7, N 1.77, M 1.25, K 1.33, C 1.53, S 2.02, Q 1.5, A 1.98, R 2.24, Y 1.89, E 1.95, H 2.05, G 1.73, I 1.94, T 1.47
G14: T 2.68, Y 1.48, D 2.69, N 2.08, H 1.85, V 1.58, W 1.87, L 2.54, R 3.17, P 2.11, Q 2.54, C 2.27, K 1.79, I 1.87, S 1.97, M 1.75, E 2.44, F 2.78, A 2.1
M7: N 2.46, S 2.39, A 1.89, W 1.96, P 1.95, V 1.64, D 2.54, F 1.77, G 1.89, L 2.39, I 2.15, Q 2.92, R 2.58, E 2.48, T 1.69, K 2.35, C 2.06, Y 2.45, H 2.9
Q6: P 1.97, M 2.06, T 2.04, N 2.22, C 2.29, W 1.79, V 2.5, A 1.9, S 2.01, H 2.22, Y 1.92, D 2.42, F 2.36, G 2.55, I 2.45, L 1.47, R 2.38, K 2.13, E 2.37
R16: C 1.59, G 1.64, E 2.3, A 1.45, Y 1.6, K 2.89, M 1.65, T 2.55, S 2.21, H 2.5, V 1.88, D 2.84, P 1.8, N 2.1, W 1.14, I 1.43, L 1.79, Q 1.94
